According to US20160272683A1 (Novo Nordisk, published 2016):
* marks the point of attachment. C18 diacid = O=C(O)CCCCCCCCCCCCCCCCC(=O)*

T1: human amylin receptor (human calcitonin receptor + human RAMP3) (human) (UniProt P30988)
T1 sequence (looked up) 1: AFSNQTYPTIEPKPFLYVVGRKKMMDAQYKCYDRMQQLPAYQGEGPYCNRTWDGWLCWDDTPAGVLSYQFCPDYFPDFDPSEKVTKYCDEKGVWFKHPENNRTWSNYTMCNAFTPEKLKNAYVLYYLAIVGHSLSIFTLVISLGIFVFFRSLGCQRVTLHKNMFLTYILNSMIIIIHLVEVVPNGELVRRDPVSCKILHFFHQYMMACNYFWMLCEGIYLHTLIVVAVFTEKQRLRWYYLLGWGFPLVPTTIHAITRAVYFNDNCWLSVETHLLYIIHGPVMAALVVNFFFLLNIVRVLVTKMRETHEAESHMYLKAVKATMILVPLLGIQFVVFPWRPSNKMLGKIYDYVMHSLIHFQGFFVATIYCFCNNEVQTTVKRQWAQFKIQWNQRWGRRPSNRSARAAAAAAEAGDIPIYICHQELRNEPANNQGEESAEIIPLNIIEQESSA
T1 sequence (looked up) 2: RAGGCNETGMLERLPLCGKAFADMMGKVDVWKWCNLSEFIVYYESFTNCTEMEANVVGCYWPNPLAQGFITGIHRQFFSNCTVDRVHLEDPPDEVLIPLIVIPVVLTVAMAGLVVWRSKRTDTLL


Molecular target: T1, human amylin receptor (human calcitonin receptor + human RAMP3) (human)
Experiment: whole-cell competition vs 125I-rat amylin (Assay Va)

| IC50 [nM] | Binder |
| --- | --- |
| 0.417 | {C18 diacid}-EASELSTAILGRLSAELHELATLPRTETGPESP-NH2 (SMILES CC[C@H](C)[C@H](NC(=O)[C@H](C)NC(=O)[C@@H](NC(=O)[C@H](CO)NC(=O)[C@H](CC(C)C)NC(=O)[C@H](CCC(=O)O)NC(=O)[C@H](CO)NC(=O)[C@H](C)NC(=O)[C@H](CCC(=O)O)NC(=O)CCCCCCCCCCCCCCCCC(=O)O)[C@@H](C)O)C(=O)N[C@@H](CC(C)C)C(=O)NCC(=O)N[C@@H](CCCNC(=N)N)C(=O)N[C@@H](CC(C)C)C(=O)N[C@@H](CO)C(=O)N[C@@H](C)C(=O)N[C@@H](CCC(=O)O)C(=O)N[C@@H](CC(C)C)C(=O)N[C@@H](Cc1c[nH]cn1)C(=O)N[C@@H](CCC(=O)O)C(=O)N[C@@H](CC(C)C)C(=O)N[C@@H](C)C(=O)N[C@H](C(=O)N[C@@H](CC(C)C)C(=O)N1CCC[C@H]1C(=O)N[C@@H](CCCNC(=N)N)C(=O)N[C@H](C(=O)N[C@@H](CCC(=O)O)C(=O)N[C@H](C(=O)NCC(=O)N1CCC[C@H]1C(=O)N[C@@H](CCC(=O)O)C(=O)N[C@@H](CO)C(=O)N1CCC[C@H]1C(N)=O)[C@@H](C)O)[C@@H](C)O)[C@@H](C)O) [[N-terminal(C18 diacid), 9I]mimylin] |
| 0.275 | {C18 diacid}-EASELSTLALGRLSAELHELATLPRTETGPESP-NH2 (SMILES CC(C)C[C@H](NC(=O)[C@H](C)NC(=O)[C@H](CC(C)C)NC(=O)[C@@H](NC(=O)[C@H](CO)NC(=O)[C@H](CC(C)C)NC(=O)[C@H](CCC(=O)O)NC(=O)[C@H](CO)NC(=O)[C@H](C)NC(=O)[C@H](CCC(=O)O)NC(=O)CCCCCCCCCCCCCCCCC(=O)O)[C@@H](C)O)C(=O)NCC(=O)N[C@@H](CCCNC(=N)N)C(=O)N[C@@H](CC(C)C)C(=O)N[C@@H](CO)C(=O)N[C@@H](C)C(=O)N[C@@H](CCC(=O)O)C(=O)N[C@@H](CC(C)C)C(=O)N[C@@H](Cc1c[nH]cn1)C(=O)N[C@@H](CCC(=O)O)C(=O)N[C@@H](CC(C)C)C(=O)N[C@@H](C)C(=O)N[C@H](C(=O)N[C@@H](CC(C)C)C(=O)N1CCC[C@H]1C(=O)N[C@@H](CCCNC(=N)N)C(=O)N[C@H](C(=O)N[C@@H](CCC(=O)O)C(=O)N[C@H](C(=O)NCC(=O)N1CCC[C@H]1C(=O)N[C@@H](CCC(=O)O)C(=O)N[C@@H](CO)C(=O)N1CCC[C@H]1C(N)=O)[C@@H](C)O)[C@@H](C)O)[C@@H](C)O) [[N-terminal(C18 diacid), 8L]mimylin] |
| 0.429 | {C18 diacid}-EASEISTAALGRLSAELHELATLPRTETGPESP-NH2 (SMILES CC[C@H](C)[C@H](NC(=O)[C@H](CCC(=O)O)NC(=O)[C@H](CO)NC(=O)[C@H](C)NC(=O)[C@H](CCC(=O)O)NC(=O)CCCCCCCCCCCCCCCCC(=O)O)C(=O)N[C@@H](CO)C(=O)N[C@H](C(=O)N[C@@H](C)C(=O)N[C@@H](C)C(=O)N[C@@H](CC(C)C)C(=O)NCC(=O)N[C@@H](CCCNC(=N)N)C(=O)N[C@@H](CC(C)C)C(=O)N[C@@H](CO)C(=O)N[C@@H](C)C(=O)N[C@@H](CCC(=O)O)C(=O)N[C@@H](CC(C)C)C(=O)N[C@@H](Cc1c[nH]cn1)C(=O)N[C@@H](CCC(=O)O)C(=O)N[C@@H](CC(C)C)C(=O)N[C@@H](C)C(=O)N[C@H](C(=O)N[C@@H](CC(C)C)C(=O)N1CCC[C@H]1C(=O)N[C@@H](CCCNC(=N)N)C(=O)N[C@H](C(=O)N[C@@H](CCC(=O)O)C(=O)N[C@H](C(=O)NCC(=O)N1CCC[C@H]1C(=O)N[C@@H](CCC(=O)O)C(=O)N[C@@H](CO)C(=O)N1CCC[C@H]1C(N)=O)[C@@H](C)O)[C@@H](C)O)[C@@H](C)O)[C@@H](C)O) [[N-terminal(C18 diacid), 5I]mimylin] |
| 1.48 | {C18 diacid}-EASELSTAALGRLSAEIHELATLPRTETGPESP-NH2 (SMILES CC[C@H](C)[C@H](NC(=O)[C@H](CCC(=O)O)NC(=O)[C@H](C)NC(=O)[C@H](CO)NC(=O)[C@H](CC(C)C)NC(=O)[C@H](CCCNC(=N)N)NC(=O)CNC(=O)[C@H](CC(C)C)NC(=O)[C@H](C)NC(=O)[C@H](C)NC(=O)[C@@H](NC(=O)[C@H](CO)NC(=O)[C@H](CC(C)C)NC(=O)[C@H](CCC(=O)O)NC(=O)[C@H](CO)NC(=O)[C@H](C)NC(=O)[C@H](CCC(=O)O)NC(=O)CCCCCCCCCCCCCCCCC(=O)O)[C@@H](C)O)C(=O)N[C@@H](Cc1c[nH]cn1)C(=O)N[C@@H](CCC(=O)O)C(=O)N[C@@H](CC(C)C)C(=O)N[C@@H](C)C(=O)N[C@H](C(=O)N[C@@H](CC(C)C)C(=O)N1CCC[C@H]1C(=O)N[C@@H](CCCNC(=N)N)C(=O)N[C@H](C(=O)N[C@@H](CCC(=O)O)C(=O)N[C@H](C(=O)NCC(=O)N1CCC[C@H]1C(=O)N[C@@H](CCC(=O)O)C(=O)N[C@@H](CO)C(=O)N1CCC[C@H]1C(N)=O)[C@@H](C)O)[C@@H](C)O)[C@@H](C)O) [[N-terminal(C18 diacid), 17I]mimylin] |
| 1.31 | {C18 diacid}-EASELHTAALGRLSAELHELATLPRTETGPESP-NH2 (SMILES CC(C)C[C@H](NC(=O)[C@H](C)NC(=O)[C@H](C)NC(=O)[C@@H](NC(=O)[C@H](Cc1c[nH]cn1)NC(=O)[C@H](CC(C)C)NC(=O)[C@H](CCC(=O)O)NC(=O)[C@H](CO)NC(=O)[C@H](C)NC(=O)[C@H](CCC(=O)O)NC(=O)CCCCCCCCCCCCCCCCC(=O)O)[C@@H](C)O)C(=O)NCC(=O)N[C@@H](CCCNC(=N)N)C(=O)N[C@@H](CC(C)C)C(=O)N[C@@H](CO)C(=O)N[C@@H](C)C(=O)N[C@@H](CCC(=O)O)C(=O)N[C@@H](CC(C)C)C(=O)N[C@@H](Cc1c[nH]cn1)C(=O)N[C@@H](CCC(=O)O)C(=O)N[C@@H](CC(C)C)C(=O)N[C@@H](C)C(=O)N[C@H](C(=O)N[C@@H](CC(C)C)C(=O)N1CCC[C@H]1C(=O)N[C@@H](CCCNC(=N)N)C(=O)N[C@H](C(=O)N[C@@H](CCC(=O)O)C(=O)N[C@H](C(=O)NCC(=O)N1CCC[C@H]1C(=O)N[C@@H](CCC(=O)O)C(=O)N[C@@H](CO)C(=O)N1CCC[C@H]1C(N)=O)[C@@H](C)O)[C@@H](C)O)[C@@H](C)O) [[N-terminal(C18 diacid), 6H]mimylin] |
| 0.329 | {C18 diacid}-EASELSTAALGRLSAELAELATLPRTETGPESP-NH2 (SMILES CC(C)C[C@H](NC(=O)[C@H](C)NC(=O)[C@H](C)NC(=O)[C@@H](NC(=O)[C@H](CO)NC(=O)[C@H](CC(C)C)NC(=O)[C@H](CCC(=O)O)NC(=O)[C@H](CO)NC(=O)[C@H](C)NC(=O)[C@H](CCC(=O)O)NC(=O)CCCCCCCCCCCCCCCCC(=O)O)[C@@H](C)O)C(=O)NCC(=O)N[C@@H](CCCNC(=N)N)C(=O)N[C@@H](CC(C)C)C(=O)N[C@@H](CO)C(=O)N[C@@H](C)C(=O)N[C@@H](CCC(=O)O)C(=O)N[C@@H](CC(C)C)C(=O)N[C@@H](C)C(=O)N[C@@H](CCC(=O)O)C(=O)N[C@@H](CC(C)C)C(=O)N[C@@H](C)C(=O)N[C@H](C(=O)N[C@@H](CC(C)C)C(=O)N1CCC[C@H]1C(=O)N[C@@H](CCCNC(=N)N)C(=O)N[C@H](C(=O)N[C@@H](CCC(=O)O)C(=O)N[C@H](C(=O)NCC(=O)N1CCC[C@H]1C(=O)N[C@@H](CCC(=O)O)C(=O)N[C@@H](CO)C(=O)N1CCC[C@H]1C(N)=O)[C@@H](C)O)[C@@H](C)O)[C@@H](C)O) [[N-terminal(C18 diacid), 18A]mimylin] |
| 0.511 | {C18 diacid}-EASELSTAALGRLSAELHEIATLPRTETGPESP-NH2 (SMILES CC[C@H](C)[C@H](NC(=O)[C@H](CCC(=O)O)NC(=O)[C@H](Cc1c[nH]cn1)NC(=O)[C@H](CC(C)C)NC(=O)[C@H](CCC(=O)O)NC(=O)[C@H](C)NC(=O)[C@H](CO)NC(=O)[C@H](CC(C)C)NC(=O)[C@H](CCCNC(=N)N)NC(=O)CNC(=O)[C@H](CC(C)C)NC(=O)[C@H](C)NC(=O)[C@H](C)NC(=O)[C@@H](NC(=O)[C@H](CO)NC(=O)[C@H](CC(C)C)NC(=O)[C@H](CCC(=O)O)NC(=O)[C@H](CO)NC(=O)[C@H](C)NC(=O)[C@H](CCC(=O)O)NC(=O)CCCCCCCCCCCCCCCCC(=O)O)[C@@H](C)O)C(=O)N[C@@H](C)C(=O)N[C@H](C(=O)N[C@@H](CC(C)C)C(=O)N1CCC[C@H]1C(=O)N[C@@H](CCCNC(=N)N)C(=O)N[C@H](C(=O)N[C@@H](CCC(=O)O)C(=O)N[C@H](C(=O)NCC(=O)N1CCC[C@H]1C(=O)N[C@@H](CCC(=O)O)C(=O)N[C@@H](CO)C(=O)N1CCC[C@H]1C(N)=O)[C@@H](C)O)[C@@H](C)O)[C@@H](C)O) [[N-terminal(C18 diacid), 20I]mimylin] |
| 0.796 | {C18 diacid}-EASELSTAVLGRLSAELHELATLPRTETGPESP-NH2 (SMILES CC(C)C[C@H](NC(=O)[C@H](CCC(=O)O)NC(=O)[C@H](Cc1c[nH]cn1)NC(=O)[C@H](CC(C)C)NC(=O)[C@H](CCC(=O)O)NC(=O)[C@H](C)NC(=O)[C@H](CO)NC(=O)[C@H](CC(C)C)NC(=O)[C@H](CCCNC(=N)N)NC(=O)CNC(=O)[C@H](CC(C)C)NC(=O)[C@@H](NC(=O)[C@H](C)NC(=O)[C@@H](NC(=O)[C@H](CO)NC(=O)[C@H](CC(C)C)NC(=O)[C@H](CCC(=O)O)NC(=O)[C@H](CO)NC(=O)[C@H](C)NC(=O)[C@H](CCC(=O)O)NC(=O)CCCCCCCCCCCCCCCCC(=O)O)[C@@H](C)O)C(C)C)C(=O)N[C@@H](C)C(=O)N[C@H](C(=O)N[C@@H](CC(C)C)C(=O)N1CCC[C@H]1C(=O)N[C@@H](CCCNC(=N)N)C(=O)N[C@H](C(=O)N[C@@H](CCC(=O)O)C(=O)N[C@H](C(=O)NCC(=O)N1CCC[C@H]1C(=O)N[C@@H](CCC(=O)O)C(=O)N[C@@H](CO)C(=O)N1CCC[C@H]1C(N)=O)[C@@H](C)O)[C@@H](C)O)[C@@H](C)O) [[N-terminal(C18 diacid), 9V]mimylin] |
